The results in this text go back to patent publication US20240383982A1 (Genmab, published 2024).

The EC50 (read off the curve) is the concentration at which the effect is half-maximal. For orientation: Kd means the free concentration of one partner at which half of the binding sites on the other are occupied at equilibrium, for simple one-to-one binding. Broadly, the koff is a measure of how fast the partners let go of each other. A word on the kon: it is a measure of how fast the partners come together.

Experiment [1] addresses T1, rabbit (Oryctolagus cuniculus) B7H4, full length, on HEK-293F cells (rabbit, UniProt Q7Z7D3 25-282 (human entry)).
T1 construct: Uniprot G1TQE8; also called rabbit B7H4
T1 chain: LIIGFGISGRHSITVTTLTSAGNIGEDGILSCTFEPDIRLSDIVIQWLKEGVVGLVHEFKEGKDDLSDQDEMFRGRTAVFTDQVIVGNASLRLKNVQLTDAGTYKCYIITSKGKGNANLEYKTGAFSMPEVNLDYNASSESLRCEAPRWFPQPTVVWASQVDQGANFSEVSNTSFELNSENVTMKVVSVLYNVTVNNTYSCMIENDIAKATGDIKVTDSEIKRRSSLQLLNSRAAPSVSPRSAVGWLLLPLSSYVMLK
The experiment is described as follows: flow cytometry, transiently transfected HEK-293F cells. For orientation: In flow cytometry, cells or beads pass a laser one at a time.

In experiment [2] the target is T2, dog (Canis familiaris) B7H4, full length, on HEK-293F cells (dog, UniProt Q7Z7D3 25-282 (human entry)).
T2 construct: Uniprot F1P8R9; also called dog B7H4
T2 chain: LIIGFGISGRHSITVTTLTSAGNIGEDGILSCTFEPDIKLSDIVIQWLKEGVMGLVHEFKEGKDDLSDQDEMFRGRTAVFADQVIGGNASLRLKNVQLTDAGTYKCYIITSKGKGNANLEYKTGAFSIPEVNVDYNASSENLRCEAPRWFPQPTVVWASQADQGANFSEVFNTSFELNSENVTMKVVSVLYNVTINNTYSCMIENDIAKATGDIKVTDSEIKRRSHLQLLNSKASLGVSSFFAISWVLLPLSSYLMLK
The description is as above.

The target in experiment [3] is T3, human B7H4, full length, on cells (human, UniProt Q7Z7D3 25-282).
T3 construct: Uniprot Q7Z7D3; Used for transfected HEK cells and for the B7H4-expressing human tumor cell lines (endogenous B7H4); also called VTCN1
T3 sequence: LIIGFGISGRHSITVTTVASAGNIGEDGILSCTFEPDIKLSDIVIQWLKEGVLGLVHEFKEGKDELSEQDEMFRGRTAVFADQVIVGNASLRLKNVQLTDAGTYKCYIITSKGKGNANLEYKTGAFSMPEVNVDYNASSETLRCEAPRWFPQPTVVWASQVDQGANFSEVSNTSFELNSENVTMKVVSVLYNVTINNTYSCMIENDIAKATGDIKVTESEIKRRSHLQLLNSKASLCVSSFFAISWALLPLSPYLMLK
The experiment is described as follows: flow cytometry on HCC1954 tumor cells [panel HCC1954 cells]. As for the experimental part:
(§1) Cells (3×10⁴ cells/well) were incubated in polystyrene 96-well round-bottom plates (Greiner bio-one, cat. no. 650180) with serial dilutions of antibodies (ranging from 0.000458 to 30 μg/mL in 4-fold dilution steps) in 100 μL PBS/0.1% BSA/0.02% azide (staining buffer) at 4° C. for 30 min. Experiments were performed in technical duplicate. After washing twice in staining buffer, cells were incubated in 50 μL secondary antibody at 4° C. for 30 min. As a secondary antibody, R-Phycoerythrin (PE)-conjugated goat-anti-human IgG F(ab′)₂ (1:500 in FACS buffer; Jackson ImmunoResearch Laboratories, Inc., West Grove, PA, cat. no. 109-116-098), was used. Cells were washed twice in staining buffer, re-suspended in 30 μL FACS buffer containing Topro-3 (1:10,000 dilution) and analyzed on an iQue Screener (Intellicyt Corporation, USA). Binding curves were analyzed using non-linear regression (sigmoidal dose-response with variable slope) using GraphPad Prism V7.02 software (GraphPad Software, San Diego, CA, USA).
(§2) Binding was analyzed by flow cytometry as described above.

The target in experiment [4] is T4, recombinant hIgG1 Fc-tagged cynomolgus monkey B7H4 (Creative BioMart, cat. no. VTCN1-1517R) (cynomolgus monkey, UniProt Q7Z7D3 25-259 (human entry)).
T4 construct: Bought protein; also called cynomolgus monkey B7H4 extracellular domain
T4 sequence: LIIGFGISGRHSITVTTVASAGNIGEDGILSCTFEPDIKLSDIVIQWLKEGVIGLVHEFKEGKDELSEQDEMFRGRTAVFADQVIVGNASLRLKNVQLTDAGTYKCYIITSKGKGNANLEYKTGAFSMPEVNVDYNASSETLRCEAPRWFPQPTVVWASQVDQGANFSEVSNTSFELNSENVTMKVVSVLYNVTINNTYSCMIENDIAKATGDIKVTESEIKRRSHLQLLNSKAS
The experiment is described as follows: BLI (Octet HTX); Fc-tagged cynomolgus B7H4 coupled to AR2G sensor, bispecific antibody in solution (monovalent B7H4 binding); 2nd experiment (average of n = 3). The procedure: In addition, the affinity of for cynomolgus monkey B7H4 was determined by BLI. […] Amine Reactive 2nd Generation (AR2G) biosensors (FortéBio, cat. no. 18-5092) were activated by reaction with 20 mM EDC (N-(3-Dimethylaminopropyl)-N′-ethylcarbodiimide hydrochloride) (FortéBio, cat. no. 18-1033) and 10 mM s-NHS (N-hydroxysulfosuccinimide sodium salt) (FortéBio, cat. no. 18-1067) for 300 s. The activated sensors were loaded with 10 μg/mL recombinant hIgG1 Fc-tagged cynomolgus monkey B7H4 (Creative BioMart, cat. no. VTCN1-1517R) in 10 mM Sodium Acetate pH 4.0 (FortéBio, cat. no. 18-1068) for 600 s and quenched with 1 M ethanolamine pH 8.5 (FortéBio, cat. no. 18-1071) for 300 s. […] A molecular mass of 150 kDa of the antibodies was used for calculations. For each antibody a reference sensor was used, which was incubated with Sample Diluent instead of antibody.
Data were acquired using Data Acquisition Software v9.0.0.49d (FortéBio) and analyzed with Data Analysis Software v9.0.0.12 (FortéBio). Data traces were corrected per antibody by subtraction of the reference sensor. The Y-axis was aligned to the last 10 s of the baseline, Interstep Correction alignment to dissociation and Savitzky-Golay filtering were applied. Data traces with a response<0.05 nm were excluded from analysis. The data was fitted with the 1:1 Global Full fit model using a window of interest for the association and dissociation times set at 100 s and 200 s respectively.
The experiment was performed as described above, with some small exceptions.
Background: In BLI a coated tip is dipped into the sample, and binding shifts an interference pattern.

Experiment [5] concerns the target T3, human B7H4, full length, on cells. The experiment is described as follows: flow cytometry on NIH-OVCAR-3 tumor cells [panel NIH-Ovcar-3 cells]. As for the experimental part:
as §1, §2

B1: IgG1-B7H4-C5-FEAR (antibody, V domains shown)
VH: QLQLQESGPGLVKPSETLSLTCTVSGGSIKSGSYYWGWIRQPPGKGLEWIGNIYYSGSTYYNPSLRSRVTISVDTSKNQFSLKLSSVTAADTAVYYCAREGSYPNQFDPWGQGTLVTVSS
VL: EIVMTQSPATLSVSPGERATLSCRASQSVSSNLAWYQQKPGQAPRLLIYGASTRATGIPARFSGSGSGTEFTLTISSLQSEDFAVYYCQQYHSFPFTFGGGTKVEIKR
notes: Full length IgG1 FEAR, kappa; variable domains from US20190085080A1
B1: the binding result in experiment [1] and in experiment [2] was “binds” in each case.

B2: bsIgG1-huCD3-H101G-FEALxB7H4-C1-N52S-FEAR (bispecific antibody)
heavy 1: not shown
light 1: not shown
heavy 2: QVQLQQWGAGLLKPSETLSLTCAVYGGSFSGYYWSWIRQPPGKGLEWIGEISHSGSTNYNPSLKSRVTISIDTSKNQFSLKLTSVTAADTAVFYCARGLFNWNFDSWGQGTLVTVSSASTKGPSVFPLAPSSKSTSGGTAALGCLVKDYFPEPVTVSWNSGALTSGVHTFPAVLQSSGLYSLSSVVTVPSSSLGTQTYICNVNHKPSNTKVDKRVEPKSCDKTHTCPPCPAPEFEGGPSVFLFPPKPKDTLMISRTPEVTCVVVAVSHEDPEVKFNWYVDGVEVHNAKTKPREEQYNSTYRVVSVLTVLHQDWLNGKEYKCKVSNKALPAPIEKTISKAKGQPREPQVYTLPPSREEMTKNQVSLTCLVKGFYPSDIAVEWESNGQPENNYKTTPPVLDSDGSFFLYSRLTVDKSRWQQGNVFSCSVMHEALHNHYTQKSLSLSPGK
light 2: DIQMTQSPSSLSASVGDRVTITCRASQGIRNDLGWYQQKPGKAPKRLIYGASSLQSGVPSRFSGSGSGTEFTLTISSLQPEDFATYYCLQHNSYPRTFGQGTTVEIKRTVAAPSVFIFPPSDEQLKSGTASVVCLLNNFYPREAKVQWKVDNALQSGNSQESVTEQDSKDSTYSLSSTLTLSKADYEKHKVYACEVTHQGLSSPVTKSFNRGEC
notes: also called bslgG1-huCD3-H101G-FEALxB7H4-C1-N52S-FEAR; BslgG1-huCD3-H101G-FEALxB7H4-C1-N52S-FEAR
Regarding B2, the “EC50 (read off the curve)” value in experiment [3] is approximately 3 µg/mL. Moreover, in experiment [4], the Kd is 25 nM, the koff is 0.0027 s⁻¹ and the kon came to 120000 M⁻¹ s⁻¹. Further, in experiment [5], the “EC50 (read off the curve)” value is approximately 2 µg/mL.
